Measured values taken from patent US20180105569A1 (INDIANA UNIVERSITY RESEARCH AND TECHNOLOGY, published 2018).
Read-outs that look alike come from different tables or passages of the source. Numbered stars: 1 amine (or outer) side, 2 acyl side, 3 side chain; on linkers, the order of the positions; unused ones are H or OH. Square brackets hold non-standard residues; d marks the D form. Side chains are listed from the residue outwards. Ends that are not written are not given here. * marks the point of attachment. 4‑HPA = 4-hydroxyphenylacetic acid, O=C(Cc1ccc(O[*:3])cc1)[*:2]; C16 acyl = C16 fatty acyl group bound via a gamma-Glu spacer; γGlu = O=C(O)[C@H](CCC(=O)[*:2])N[*:1]; Desaminotyrosyl = O=C(CCc1ccc(O)cc1)*; Palmitoyl = CCCCCCCCCCCCCCCC(=O)*

Columns and labels:
Assay in all cases: cell-based or functional assay
glucagon receptor [1] = target: T1, glucagon receptor (UniProt P47871 26-477, limits assumed)
GLP-1 receptor [2] = target: T2, GLP-1 receptor (UniProt P43220 24-463, limits assumed)
GIP receptor [3] = target: T3, GIP receptor (UniProt P48546 22-466, limits assumed)
T3 sequence (looked up): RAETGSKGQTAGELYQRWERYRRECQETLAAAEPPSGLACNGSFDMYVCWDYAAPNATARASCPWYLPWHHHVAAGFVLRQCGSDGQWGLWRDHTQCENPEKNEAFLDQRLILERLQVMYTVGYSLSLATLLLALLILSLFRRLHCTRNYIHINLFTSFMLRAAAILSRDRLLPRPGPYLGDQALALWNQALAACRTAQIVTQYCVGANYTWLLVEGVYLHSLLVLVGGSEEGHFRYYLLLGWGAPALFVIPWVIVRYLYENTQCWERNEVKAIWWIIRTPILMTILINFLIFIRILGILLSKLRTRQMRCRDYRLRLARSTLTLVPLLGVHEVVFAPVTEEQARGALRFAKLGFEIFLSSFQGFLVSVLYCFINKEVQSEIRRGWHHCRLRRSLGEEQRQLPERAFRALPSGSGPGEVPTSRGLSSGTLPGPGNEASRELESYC

glucagon receptor [4] = target: T1, glucagon receptor; remark: listed apart in the source
GLP-1 receptor [5] = target: T2, GLP-1 receptor; remark: listed apart in the source
GIP receptor [6] = target: T3, GIP receptor; remark: listed apart in the source

T1 sequence (P47871 26-477 limits assumed): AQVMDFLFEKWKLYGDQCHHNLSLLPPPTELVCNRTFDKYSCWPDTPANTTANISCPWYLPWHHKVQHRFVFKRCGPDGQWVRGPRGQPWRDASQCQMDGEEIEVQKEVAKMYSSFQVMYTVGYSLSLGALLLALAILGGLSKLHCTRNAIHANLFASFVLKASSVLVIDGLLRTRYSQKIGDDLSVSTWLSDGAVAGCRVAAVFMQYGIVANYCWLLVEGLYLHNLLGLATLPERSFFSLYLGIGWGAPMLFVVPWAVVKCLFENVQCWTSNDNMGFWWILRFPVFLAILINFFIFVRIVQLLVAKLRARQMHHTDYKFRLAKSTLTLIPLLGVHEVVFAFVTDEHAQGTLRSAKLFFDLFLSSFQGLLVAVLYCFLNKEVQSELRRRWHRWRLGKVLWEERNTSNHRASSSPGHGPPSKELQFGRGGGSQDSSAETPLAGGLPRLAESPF

## Ac-[dY]AQGTFTSDK([γGlu-Palmitoyl])SKYLDERAAQDFVQWLLDLGPSSGAPPPS-NH2 [peptide of SEQ ID NO: 153]
Glucagon receptor [1]
  EC50 at Glucagon Receptor (cAMP luciferase reporter, HEK293): 0.021 nM
GLP-1 receptor [2]
  EC50 at GLP-1 Receptor (cAMP luciferase reporter, HEK293): 0.017 nM
GIP receptor [3]
  EC50 at GIP Receptor (cAMP luciferase reporter, HEK293): 0.018 nM

B1: peptide of SEQ ID NO: 146 (peptide)
peptide: Ac-[dY]AQGTFTSDK([γGlu-Palmitoyl])SKYLDERAAQDFVQWLLEAGPSSGAPPPS-NH2
SMILES: CCCCCCCCCCCCCCCC(=O)N[C@@H](CCC(=O)NCCCC[C@H](NC(=O)[C@H](CC(=O)O)NC(=O)[C@H](CO)NC(=O)[C@@H](NC(=O)[C@H](Cc1ccccc1)NC(=O)[C@@H](NC(=O)CNC(=O)[C@H](CCC(N)=O)NC(=O)[C@H](C)NC(=O)[C@@H](Cc1ccc(O)cc1)NC(C)=O)[C@@H](C)O)[C@@H](C)O)C(=O)N[C@@H](CO)C(=O)N[C@@H](CCCCN)C(=O)N[C@@H](Cc1ccc(O)cc1)C(=O)N[C@@H](CC(C)C)C(=O)N[C@@H](CC(=O)O)C(=O)N[C@@H](CCC(=O)O)C(=O)N[C@@H](CCCNC(=N)N)C(=O)N[C@@H](C)C(=O)N[C@@H](C)C(=O)N[C@@H](CCC(N)=O)C(=O)N[C@@H](CC(=O)O)C(=O)N[C@@H](Cc1ccccc1)C(=O)N[C@H](C(=O)N[C@@H](CCC(N)=O)C(=O)N[C@@H](Cc1c[nH]c2ccccc12)C(=O)N[C@@H](CC(C)C)C(=O)N[C@@H](CC(C)C)C(=O)N[C@@H](CCC(=O)O)C(=O)N[C@@H](C)C(=O)NCC(=O)N1CCC[C@H]1C(=O)N[C@@H](CO)C(=O)N[C@@H](CO)C(=O)NCC(=O)N[C@@H](C)C(=O)N1CCC[C@H]1C(=O)N1CCC[C@H]1C(=O)N1CCC[C@H]1C(=O)N[C@@H](CO)C(N)=O)C(C)C)C(=O)O
Glucagon receptor [1]
  EC50 at Glucagon Receptor (cAMP luciferase reporter, HEK293): 0.009 nM
GLP-1 receptor [2]
  EC50 at GLP-1 Receptor (cAMP luciferase reporter, HEK293): 0.007 nM
GIP receptor [3]
  EC50 at GIP Receptor (cAMP luciferase reporter, HEK293): 0.006 nM

## [Desaminotyrosyl]AQGTFTSDYSKYLDERAAQDFVQWLLEGGPSSGAPPPSK(Palmitoyl)G-NH2 [peptide of SEQ ID NO: 157]
Glucagon receptor [4]
  EC50 at Glucagon Receptor (cAMP luciferase reporter, HEK293): 0.047 nM
GLP-1 receptor [5]
  EC50 at GLP-1 Receptor (cAMP luciferase reporter, HEK293): 0.013 nM
GIP receptor [6]
  EC50 at GIP Receptor (cAMP luciferase reporter, HEK293): 0.059 nM

## Ac-[dY]AQGTFTSDYSKYLDERAAQDFVQWLLEGGPSSGAPPPSK([γGlu-γGlu-Palmitoyl])G-NH2 [peptide of SEQ ID NO: 149]
Glucagon receptor [4]
  EC50 at Glucagon Receptor (cAMP luciferase reporter, HEK293): 0.012 nM
GLP-1 receptor [5]
  EC50 at GLP-1 Receptor (cAMP luciferase reporter, HEK293): 0.002 nM
GIP receptor [6]
  EC50 at GIP Receptor (cAMP luciferase reporter, HEK293): 0.008 nM

## Ac-[dH]AQGTFTSDYSKYLDERAAQDFVQWLLEGGPSSGAPPPSK([γGlu-γGlu-Palmitoyl])G-NH2 [peptide of SEQ ID NO: 152]
Glucagon receptor [1]
  EC50 at Glucagon Receptor (cAMP luciferase reporter, HEK293): 0.003 nM
GLP-1 receptor [2]
  EC50 at GLP-1 Receptor (cAMP luciferase reporter, HEK293): 0.003 nM
GIP receptor [3]
  EC50 at GIP Receptor (cAMP luciferase reporter, HEK293): 0.017 nM

## [4‑HPA]AQGTFTSDK([γGlu-C16 acyl])SKYLDERAAQDFVQWLLEGGPSSGAPPPS-NH2 [peptide of SEQ ID NO: 156]
Glucagon receptor [4]
  EC50 at Glucagon Receptor (cAMP luciferase reporter, HEK293): 0.011 nM
GLP-1 receptor [5]
  EC50 at GLP-1 Receptor (cAMP luciferase reporter, HEK293): 0.002 nM
GIP receptor [6]
  EC50 at GIP Receptor (cAMP luciferase reporter, HEK293): 0.042 nM

B2: peptide of SEQ ID NO: 148 (peptide)
peptide: Ac-[dH]AEGTFTSDK([γGlu-Palmitoyl])SKYLDERAAQDFVQWLLEGGPSSGAPPPS-NH2
SMILES: CCCCCCCCCCCCCCCC(=O)N[C@@H](CCC(=O)NCCCC[C@H](NC(=O)[C@H](CC(=O)O)NC(=O)[C@H](CO)NC(=O)[C@@H](NC(=O)[C@H](Cc1ccccc1)NC(=O)[C@@H](NC(=O)CNC(=O)[C@H](CCC(=O)O)NC(=O)[C@H](C)NC(=O)[C@@H](Cc1c[nH]cn1)NC(C)=O)[C@@H](C)O)[C@@H](C)O)C(=O)N[C@@H](CO)C(=O)N[C@@H](CCCCN)C(=O)N[C@@H](Cc1ccc(O)cc1)C(=O)N[C@@H](CC(C)C)C(=O)N[C@@H](CC(=O)O)C(=O)N[C@@H](CCC(=O)O)C(=O)N[C@@H](CCCNC(=N)N)C(=O)N[C@@H](C)C(=O)N[C@@H](C)C(=O)N[C@@H](CCC(N)=O)C(=O)N[C@@H](CC(=O)O)C(=O)N[C@@H](Cc1ccccc1)C(=O)N[C@H](C(=O)N[C@@H](CCC(N)=O)C(=O)N[C@@H](Cc1c[nH]c2ccccc12)C(=O)N[C@@H](CC(C)C)C(=O)N[C@@H](CC(C)C)C(=O)N[C@@H](CCC(=O)O)C(=O)NCC(=O)NCC(=O)N1CCC[C@H]1C(=O)N[C@@H](CO)C(=O)N[C@@H](CO)C(=O)NCC(=O)N[C@@H](C)C(=O)N1CCC[C@H]1C(=O)N1CCC[C@H]1C(=O)N1CCC[C@H]1C(=O)N[C@@H](CO)C(N)=O)C(C)C)C(=O)O
Glucagon receptor [4]
  EC50 at Glucagon Receptor (cAMP luciferase reporter, HEK293): 0.178 nM
GLP-1 receptor [5]
  EC50 at GLP-1 Receptor (cAMP luciferase reporter, HEK293): 0.002 nM

## [Desaminotyrosyl]AQGTFTSDYSKYLDERAAQDFVQWLLEGGPSSGAPPPSK([γGlu-γGlu-Palmitoyl])G-NH2 [peptide of SEQ ID NO: 160]
Glucagon receptor [4]
  EC50 at Glucagon Receptor (cAMP luciferase reporter, HEK293): 0.049 nM
GLP-1 receptor [5]
  EC50 at GLP-1 Receptor (cAMP luciferase reporter, HEK293): 0.022 nM
GIP receptor [6]
  EC50 at GIP Receptor (cAMP luciferase reporter, HEK293): 0.086 nM

## Ac-[dY]AQGTFTSDYSKYLDERAAQDFVQWLLEAGPSSGAPPPSK([γGlu-γGlu-Palmitoyl])G-NH2 [peptide of SEQ ID NO: 159]
Glucagon receptor [4]
  EC50 at Glucagon Receptor (cAMP luciferase reporter, HEK293): 0.04 nM
GLP-1 receptor [5]
  EC50 at GLP-1 Receptor (cAMP luciferase reporter, HEK293): 0.009 nM
GIP receptor [6]
  EC50 at GIP Receptor (cAMP luciferase reporter, HEK293): 0.08 nM

## Ac-[dY]ALGTFTSDK([γGlu-Palmitoyl])SKYLDERAAQDFVQWLLEGGPSSGAPPPS-NH2 [peptide of SEQ ID NO: 142]
Glucagon receptor [4]
  EC50 at Glucagon Receptor (cAMP luciferase reporter, HEK293): 0.103 nM
GLP-1 receptor [5]
  EC50 at GLP-1 Receptor (cAMP luciferase reporter, HEK293): 0.005 nM
GIP receptor [6]
  EC50 at GIP Receptor (cAMP luciferase reporter, HEK293): 0.002 nM

## Ac-[dF]AQGTFTSDK([γGlu-Palmitoyl])SKYLDERAAQDFVQWLLEGGPSSGAPPPS-NH2 [peptide of SEQ ID NO: 150]
Glucagon receptor [4]
  EC50 at Glucagon Receptor (cAMP luciferase reporter, HEK293): 0.014 nM
GLP-1 receptor [5]
  EC50 at GLP-1 Receptor (cAMP luciferase reporter, HEK293): 0.002 nM
GIP receptor [6]
  EC50 at GIP Receptor (cAMP luciferase reporter, HEK293): 0.011 nM

B3: peptide of SEQ ID NO: 144 (peptide)
peptide: Ac-[dY]AEGTFTSDK([γGlu-Palmitoyl])SKYLDERAAQDFVQWLLEAGPSSGAPPPS-NH2
SMILES: CCCCCCCCCCCCCCCC(=O)N[C@@H](CCC(=O)NCCCC[C@H](NC(=O)[C@H](CC(=O)O)NC(=O)[C@H](CO)NC(=O)[C@@H](NC(=O)[C@H](Cc1ccccc1)NC(=O)[C@@H](NC(=O)CNC(=O)[C@H](CCC(=O)O)NC(=O)[C@H](C)NC(=O)[C@@H](Cc1ccc(O)cc1)NC(C)=O)[C@@H](C)O)[C@@H](C)O)C(=O)N[C@@H](CO)C(=O)N[C@@H](CCCCN)C(=O)N[C@@H](Cc1ccc(O)cc1)C(=O)N[C@@H](CC(C)C)C(=O)N[C@@H](CC(=O)O)C(=O)N[C@@H](CCC(=O)O)C(=O)N[C@@H](CCCNC(=N)N)C(=O)N[C@@H](C)C(=O)N[C@@H](C)C(=O)N[C@@H](CCC(N)=O)C(=O)N[C@@H](CC(=O)O)C(=O)N[C@@H](Cc1ccccc1)C(=O)N[C@H](C(=O)N[C@@H](CCC(N)=O)C(=O)N[C@@H](Cc1c[nH]c2ccccc12)C(=O)N[C@@H](CC(C)C)C(=O)N[C@@H](CC(C)C)C(=O)N[C@@H](CCC(=O)O)C(=O)N[C@@H](C)C(=O)NCC(=O)N1CCC[C@H]1C(=O)N[C@@H](CO)C(=O)N[C@@H](CO)C(=O)NCC(=O)N[C@@H](C)C(=O)N1CCC[C@H]1C(=O)N1CCC[C@H]1C(=O)N1CCC[C@H]1C(=O)N[C@@H](CO)C(N)=O)C(C)C)C(=O)O
Glucagon receptor [4]
  EC50 at Glucagon Receptor (cAMP luciferase reporter, HEK293): 1.3 nM
GLP-1 receptor [5]
  EC50 at GLP-1 Receptor (cAMP luciferase reporter, HEK293): 0.017 nM
GIP receptor [6]
  EC50 at GIP Receptor (cAMP luciferase reporter, HEK293): 0.003 nM

## Ac-[dH]AEGTFTSDK([γGlu-Palmitoyl])SKYLDERAAQDFVQWLLEAGPSSGAPPPS-NH2 [peptide of SEQ ID NO: 154]
Glucagon receptor [4]
  EC50 at Glucagon Receptor (cAMP luciferase reporter, HEK293): 0.847 nM
GLP-1 receptor [5]
  EC50 at GLP-1 Receptor (cAMP luciferase reporter, HEK293): 0.004 nM
GIP receptor [6]
  EC50 at GIP Receptor (cAMP luciferase reporter, HEK293): 0.024 nM

## Ac-[dY]AQGTFTSDK([γGlu-Palmitoyl])SKYLDERAAQDFVQWLLDAGPSSGAPPPS-NH2 [peptide of SEQ ID NO: 143]
Glucagon receptor [1]
  EC50 at Glucagon Receptor (cAMP luciferase reporter, HEK293): 0.004 nM
GLP-1 receptor [2]
  EC50 at GLP-1 Receptor (cAMP luciferase reporter, HEK293): 0.003 nM
GIP receptor [3]
  EC50 at GIP Receptor (cAMP luciferase reporter, HEK293): 0.003 nM

## Ac-[dH]AQGTFTSDK([γGlu-Palmitoyl])SKYLDERAAQDFVQWLLEAGPSSGAPPPS-NH2 [peptide of SEQ ID NO: 151]
Glucagon receptor [4]
  EC50 at Glucagon Receptor (cAMP luciferase reporter, HEK293): 0.003 nM
GLP-1 receptor [5]
  EC50 at GLP-1 Receptor (cAMP luciferase reporter, HEK293): 0.002 nM
GIP receptor [6]
  EC50 at GIP Receptor (cAMP luciferase reporter, HEK293): 0.014 nM
